Results: IntAct's records for PubMed 29039417

B1: Protein PTHB1 (Homo sapiens), Q3SYG4 (parent)
chain: MSLFKARDWWSTILGDKEEFDQGCLCLANVDNSGNGQDKIIVGSFMGYLRIFSPHPAKTGDGAQAEDLLLEVDLRDPVLQVEVGKFVSGTEMLHLAVLHSRKLCVYSVSGTLGNVEHGNQCQMKLMYEHNLQRTACNMTYGSFGGVKGRDLICIQSMDGMLMVFEQESYAFGRFLPGFLLPGPLAYSSRTDSFLTVSSCQQVESYKYQVLAFATDADKRQETEQQKLGSGKRLVVDWTLNIGEQALDICIVSFNQSASSVFVLGERNFFCLKDNGQIRFMKKLDWSPSCFLPYCSVSEGTINTLIGNHNNMLHIYQDVTLKWATQLPHIPVAVRVGCLHDLKGVIVTLSDDGHLQCSYLGTDPSLFQAPNVQSRELNYDELDVEMKELQKIIKDVNKSQGVWPMTEREDDLNVSVVVSPNFDSVSQATDVEVGTDLVPSVTVKVTLQNRVILQKAKLSVYVQPPLELTCDQFTFEFMTPDLTRTVSFSVYLKRSYTPSELEGNAVVSYSRPTDRNPDGIPRVIQCKFRLPLKLICLPGQPSKTASHKITIDTNKSPVSLLSLFPGFASQSDDDQVNVMGFHFLGGARITVLASKTSQRYRIQSEQFEDLWLITNELILRLQEYFEKQGVKDFACSFSGSIPLQEYFELIDHHFELRINGEKLEELLSERAVQFRAIQRRLLARFKDKTPAPLQHLDTLLDGTYKQVIALADAVEENQGNLFQSFTRLKSATHLVILLIALWQKLSADQVAILEAAFLPLQEDTQELGWEETVDAAISHLLKTCLSKSSKEQALNLNSQLNIPKDTSQLKKHITLLCDRLSKGGRLCLSTDAAAPQTMVMPGGCTTIPESDLEERSVEQDSTELFTNHRHLTAETPRPEVSPLQGVSE
partner: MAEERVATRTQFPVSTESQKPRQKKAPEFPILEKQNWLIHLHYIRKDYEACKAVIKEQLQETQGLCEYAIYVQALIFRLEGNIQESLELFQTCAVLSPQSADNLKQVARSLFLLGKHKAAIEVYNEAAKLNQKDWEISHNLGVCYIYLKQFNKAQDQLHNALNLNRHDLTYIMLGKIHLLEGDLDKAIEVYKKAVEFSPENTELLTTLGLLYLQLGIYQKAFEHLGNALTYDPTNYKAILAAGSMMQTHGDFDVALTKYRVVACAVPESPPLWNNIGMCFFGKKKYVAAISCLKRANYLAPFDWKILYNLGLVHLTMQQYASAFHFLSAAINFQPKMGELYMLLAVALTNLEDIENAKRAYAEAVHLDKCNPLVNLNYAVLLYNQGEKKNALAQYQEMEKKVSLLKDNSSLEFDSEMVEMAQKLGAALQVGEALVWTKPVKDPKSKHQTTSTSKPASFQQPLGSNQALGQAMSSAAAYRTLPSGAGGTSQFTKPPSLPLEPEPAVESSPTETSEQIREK

Variants of: B1
Settings: with bbs4_human BBS4, Q96RK4

Variant	effect of a mutation on the interaction
T428E	with no effect
T428K	with no effect
T428A	with no effect
T434A	with no effect
T434E	with no effect
T434K	with no effect
D435E	with no effect
D435K	with no effect
D435A	with no effect
D429K	with no effect
D429A	with no effect
D429E	with no effect
V424K	with no effect
V424E	with no effect
V424A	with no effect
P438K	with no effect
P438E	with no effect
P438A	with no effect
V430A	with no effect
V430K	with no effect

Variant	effect of a mutation on the interaction
V430E	with no effect
P419K	with no effect
S439K	with no effect
S439A	with no effect
S439E	with no effect
S425E	with no effect
S425A	with no effect
S425K	with no effect
V440A	with no effect
A427E	with no effect
A427K	with no effect
G433K	with no effect
G433A	with no effect
G433E	with no effect
V437A	with no effect
V437E	with no effect
V437K	with no effect
F421A	with no effect
F421E	with no effect
F421K	with no effect

Variant	effect of a mutation on the interaction
N420E	with no effect
N420K	with no effect
N420A	with no effect
Q426K	with no effect
Q426E	with no effect
Q426A	with no effect
V432A	with no effect
V432E	with no effect
V432K	with no effect
E431K	with no effect
E431A	with no effect
L436E	with no effect
L436A	with no effect
L436K	with no effect
D422A	with no effect
D422E	with no effect
D422K	with no effect
S423K	with no effect
S423A	with no effect
S423E	with no effect

Continued, values first:

effect of a mutation on the interaction	Variant
with no effect	K443E
with no effect	K443A
with no effect	Q447A
with no effect	Q447K
with no effect	Q447E
with no effect	T441A
with no effect	T441E
with no effect	T441K
with no effect	V444A
disrupting interaction strength	V444I
with no effect	V444E
with no effect	V444K
with no effect	V450K
disrupting interaction strength	V450M
with no effect	V450A
with no effect	V450E
with no effect	R449A

effect of a mutation on the interaction	Variant
with no effect	R449E
with no effect	R449K
with no effect	V440E
disrupting interaction strength	V440K
with no effect	V442A
with no effect	V442E
with no effect	V442K
with no effect	T445A
with no effect	T445E
with no effect	T445K
with no effect	N448K
with no effect	N448A
with no effect	N448E
with no effect	L446E
with no effect	L446K
with no effect	L446A
